The text below walks through data of US20230295310A1 (ABCELLERA BIOLOGICS, published 2023).

One experiment addresses T1, human CD3e/g (human, UniProt P07766 23-126; P09693 23-116).
T1 construct: Bought soluble protein; also called hCD3e/g; human CD3e/g (Acro CDD-C52W4)
Description: SPR (Carterra LSA), mAb on chip. The method in brief: (§1)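 Purified mAbs amine-coupled (EDC/S-NHS) at 10 μg/mL in 10 mM NaOAc pH 4.25 onto an HC-30M chip, with benchmark and negative-control mAbs; analyte flowed over the array. Double-referenced sensorgrams fitted globally to a 1:1 Langmuir model for ka, kd and KD.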

The target in the next experiment is T2, human CD3e/d (human, UniProt P07766 23-126; P04234 22-105).
T2 construct: Bought soluble protein; also called hCD3e/d; human CD3/ed (Sino CT038-H2508H)
Description: SPR (Carterra LSA), mAb on chip. In short, it runs like this: as §1

T1 sequence (P07766 23-126, chain 1 of 2): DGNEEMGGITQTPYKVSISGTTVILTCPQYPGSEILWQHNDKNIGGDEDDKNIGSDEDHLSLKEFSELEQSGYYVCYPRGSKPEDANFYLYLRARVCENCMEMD
T1 sequence (P09693 23-116, chain 2 of 2): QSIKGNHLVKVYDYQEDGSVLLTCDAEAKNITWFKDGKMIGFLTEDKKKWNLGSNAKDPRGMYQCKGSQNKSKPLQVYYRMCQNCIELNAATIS
T2 sequence (P07766 23-126, chain 1 of 2): as the sequence (P07766 23-126, chain 1 of 2) above
T2 sequence (P04234 22-105, chain 2 of 2): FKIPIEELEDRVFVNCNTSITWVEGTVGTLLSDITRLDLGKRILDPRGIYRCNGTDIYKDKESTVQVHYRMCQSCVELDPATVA

B1: mAb 65 (antibody, V domains shown)
VH: QVQLVESGGGVVQPGRSLRLSCAASGFTFSGYGMHWVRQAPGKGLDWVAIIYYNGNNKYYADSVKGRFTISRDNSKNTLYLQMNSLRAEDTAVYYCARGGGYNWFDPWGQGTLVIVSS
VL: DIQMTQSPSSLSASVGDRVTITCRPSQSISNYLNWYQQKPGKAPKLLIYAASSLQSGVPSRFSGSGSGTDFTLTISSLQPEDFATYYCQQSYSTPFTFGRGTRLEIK
notes: VH and VL only
In the case of B1, the Kd (usually the constant that tells how readily two partners part at equilibrium) with human CD3e/g was determined as 101 nM; in the experiment with human CD3e/d, 128 nM.

B2: mAb 229 (antibody, V domains shown)
VH: QEQLVESGGGVVQPGRSLRLSCAASGFTFSSYGMHWVRQAPGKGLEWVAIIYYNGKKKDYADSVKGRFTISRDNSKNTLYLQMNSLRAEDTAVYYCARGLGYNWFDPWGQGTLVTVSS
VL: EIVLTQSPDFQSVTPKEKVTITCRASQSIGSSLHWYQQKPDQSPKLLIKYASQSFSGVPSRFSGSGSGTDFTLTINSLEAEDAATYYCHQSSSLPYTFGQGTKLEIK
notes: VH and VL only
With B2, the figures for the Kd with human CD3e/g and with human CD3e/d were 47 nM and 22 nM, respectively.

B3: mAb 81 (antibody, V domains shown)
VH: QVQLAESGGGVVQPGRSLRLSCAASGFTFSGYGMHWVRQAPGKGLDWVAIIYYDGKNKYYADSVKGRFTISRDNSKNTLYLQMNSLRAEDTAVYYCARGGGYNWFDPWGQGTLVTVSS
VL: DIQMTQSPSSLSASVGDRVTITCRPSQTISNYLNWYQQDPGKAPKLLIYAASSLQSGVPSRFSGSGSGTDFTLTISSLQPEDFATYYCQQSYSTPITFGRGTRLEIK
notes: VH and VL only
Consider B3, for which the Kd with human CD3e/g was 69.6 nM; with human CD3e/d, 101 nM.

B4: mAb 83 (antibody, V domains shown)
VH: QVQLVESGGGVVQPGRSLRLSCAASGFTFSGYGMHWVRQAPGKGLDWVAIIYYNGNNKYYADSVKGRFTISRDNSKNTLYLQMNSLRAEDTAVYYCARGGGYNWFDPWGQGTLVIVSS
VL: DIQMTQSPSSLSASVGDRVTITCRPSQIIINYLNWYQQKPGKAPKLLIYAASSLQSGVPSRFSGSGSGTDFTLTISSLQPEDFATYYCQQSYSTPFTFGRGTRLEIK
notes: VH and VL only
As to B4, the values for the Kd with human CD3e/g and in the experiment with human CD3e/d were 53.4 nM and 86.5 nM, respectively.

B5: mAb 86 (antibody, V domains shown)
VH: QVQLAESGGGVVQPGRSLRLSCEASGFTFSGYGMHWVRQAPGKGLDWVAIIYYDGKNKYYADSVKGRFTISRDNSKNTLYLQMNSLRAEDTAVYYCARGGGYNWFDPWGQGTLVTVSS
VL: DIQMTQSPSSLSASVGDRVTITCRPSQTISKYLNWYQQKPGKAPKLLIYAASSLQSGVPSRFSGSGSGTDFTLTISSLQPEDFATYYCQQSYITPITFGRGTRLEIK
notes: VH and VL only
Regarding B5, the Kd was 91.9 nM with human CD3e/g and 82.1 nM with human CD3e/d.

B6: mAb 237 (antibody, V domains shown)
VH: EVQLLESGGDLVQPGGSLRLTCAASGFTFRSYAMNWVRQAPGKGLEWVSTISSRGDTTNYADSVKGRFTISRDTSKNTLYLQMDNLRADDTAVYYCSKMFSYYYYYMDVWGKGTTVTVSS
VL: SYELTQPLSVSVALGQTARITCGGNNIGSKDVHWYQQKPGQAPVLVIYRDSNRPSGIPERFSGSNSGNTATLTISRAQAGDEADYYCQVWDSRTAVFGGGTQLTAL
notes: VH and VL only
As to B6, the Kd in the experiment with human CD3e/g amounted to 5.6 nM; in the experiment with human CD3e/d, 25 nM.

B7: mAb 251 (antibody, V domains shown)
VH: EVQILESGGGLVQPGGSLRLSCVASGFTFRSYVMSWVRRAPGRGLEWVSGISASGGNTYYADSVKGRFTISRDNSKNTLFLQMNGLRAEDTAVYYCAKLFSYYYYFMDVWGKGTTVTVSS
VL: SYELTQPLSVSVALGQTARITCGGNNIGSKDVHWYQQKPGQAPVLVIYRDSNRPSGIPERFSGSNSGNTATLTISGAQAGDEADYYCQVWDRRTAVFGGGTQLTAL
notes: VH and VL only
On to B7, for which the Kd with human CD3e/g worked out at 8.1 nM; with human CD3e/d, 24 nM.

B8: mAb 238 (antibody, V domains shown)
VH: EVQLLESGGDLVQPGGSLRLTCAASGFTFRSYAMNWVRQAPGKGLEWVSTISSRGDTTNYADSVKGRFTISRDTSKNTLYLQMDNLRADDTAVYYCSKMFSYYYYYMDVWGKGTTVTVSS
VL: SYELTQPLSVSVALGQTARITCGGNNIGSKDVHWYQQKPGQAPVLVIYRDSNRPSGIPERFSGSNSGNTATLTISRAQAGDEADYYCQVWDSSTAVFGGGTQLTAL
notes: VH and VL only
Regarding B8, the Kd came to 17 nM in the experiment with human CD3e/g and 59 nM with human CD3e/d.

B9: mAb 212 (antibody, V domains shown)
VH: EVQLLESGGGLVQPGGSLRLSCAASGFTFSNYAMNWVRQAPGKGLEWVSAISGSRSNTYYADSVKGRFTISRDNSKNTLYLQMNSLRAEDTGVYYCAKGAYSKYPYYYYMDVWGKGTTVTVSS
VL: EIVMTQSPATLSLSPGERATLSCRASQSVSSSYLSWYQQKPGQAPRLLIYGASTRAIGIPARFSGSGSGTDFTLTISSLQAEDFAVYYCQQDDNLPWTFGQGTKVEIK
notes: VH and VL only
As for B9, the Kd turned out to be 22 nM with human CD3e/g and 11 nM with human CD3e/d.

B10: mAb 214 (antibody, V domains shown)
VH: EVQLLESGGGLVQPGGSLRLSCAASGFTFSNYAMNWVRQAPGKGLEWVSAISGSRSNTYYADSVKGRFTISRDNSKNTLYLQMNSLRAEDTAVYYCAKGAYSKYPYYYYMDVWGKGTTVTVSS
VL: EIVMTQSPATLSLSPGERATLSCRASQSVSSSYLSWYQQKPGQAPRLLIYGASTRAIGIPARFSGSGSGTDFTLTISSLQAEDFAVYYCQQDDNLPWTFGQGTKVEIK
notes: VH and VL only
B10: the Kd in the experiment with human CD3e/g amounted to 25 nM; with human CD3e/d it was 13 nM.

B11: mAb 85 (antibody, V domains shown)
VH: QVQLVQSGAEVKKPGASVKVSCKASGYTVTGYYMHWVRQAPGQGLEWMGWINPNSGGTNFAQNFQGRVTMTRDTSISTFYMDLNRLRSDDTAVYYCARGGAPVSYWFFDLWGRGTLVTVSS
VL: DIQMTQSPSSLSASVGDRVTITCRASQSISRYLNWYQQKPGKAPKVLIYNTSSLKSGVPSRFSGSGSGTDFTLTISSLQPEDFGTFYCQQSHSTPFTFGPGTKVDIK
notes: VH and VL only
B11: the Kd with human CD3e/g was found to be 102 nM; with human CD3e/d, 117 nM.

B12: mAb 66 (antibody, V domains shown)
VH: QVQLVQSGAEVKKPGASVKVSCKASGYTVTGYYMHWVRQAPGQGLEWMGWINPNSGGTNFAQNFQGRVTMTRDTSISTFYMDLSRLRSDDTAVYYCARGGAPVSYWFFDLWGRGTLVTVSS
VL: DIQMTQSPSSLSASVGDRVTITCRASQSISRYLNWYQQKPGKAPKVLIYNTSSLKSGVPSRFSGSGSGTDFTLTISSLQPEDFATLYCQQSHSTPFTFGPGTKVDIK
notes: VH and VL only
Consider B12, for which the Kd stood at 125 nM in the experiment with human CD3e/g and 149 nM with human CD3e/d.

B13: mAb 79 (antibody, V domains shown)
VH: QVQLVQSGAEVKKPGASVKVSCKASGYIVTGYYMHWVRQAPGHGLEWMGWINPNSGGTNFAQNFQGRVTMTRDTSISTFYMDLNRLTSDDTAVYYCARGGAPVSYWFFDLWGRGTLVTVSS
VL: DIQMTQSPSSLSASVGDRVTITCRASQNINSYLNWYHQKPGKAPKVLIYNTSTLKSGVPSRFSGSGSGTYFTLTISSLQPEDFATFYCQQSHSTPFTFGPGTKVDIK
notes: VH and VL only
Turning to B13, the Kd came to 74.8 nM with human CD3e/g and 124 nM with human CD3e/d.

B14: mAb 68 (antibody, V domains shown)
VH: EVQLVDSGGGLVQPGGSLRLSCSGSGFTFSSYWMSWVRQAPGKGLEWVANIKQDGSQKYYVDSVKGRFTISRDNVKNSLYLQMNSLRVEDTAVYYCARDESSSWYWYFDLWGRGTLVTVSS
VL: DIQMTQSPSTLSASVGDRVTLTCRASQNIVKWLAWYQQKPGKAPKLLIYKASSLESGVPSWFSGSGSGTEFTLTINSLQPDDFATYYCQQYYTYSRTFGQGTKVEIK
notes: VH and VL only
Regarding B14, the Kd with human CD3e/g stood at 99.9 nM; with human CD3e/d it was 46.7 nM.

B15: mAb 196 (antibody, V domains shown)
VH: QEQLVESGGGVVQSGRSLRLSCVASGFKFSGYGMHWVRQAPGKGLEWVAIIYYDGKNKYYADSVKGRFTVSRDNSKNTLYLQMNSLRAEDTAVYYCTRGAGYNWFDSWGQGTLVTVSS
VL: EIVMTQSPATLSVSPGERATLSCRASQSVRNNLAWYQQKPGQAPRLLIYGVSTRATAFPARFSGSGSGTEFTLTISSLQSEDFAVYYCQQYNNWPLTFGGGTKVEIK
notes: VH and VL only
For B15, the Kd was found to be 9.1 nM in the experiment with human CD3e/g and 6.9 nM in the experiment with human CD3e/d.

B16: mAb 225 (antibody, V domains shown)
VH: QEQLVESGGGVVQPGGSLRLSCAASGFKFSGYGMHWVRQAPGKGLEWVAIIWYNGRKTYYAESVKGRFTISRDNSKNTLSLQMNRLRVEDTAVYYCTAGQGYNWFDPWGQGTLVTVSS
VL: EIVMTQSPATLSVSPGERATLSCRASQSVSSNLAWYQQKPGQAPRLLIYGASTRATGIPARFSGSGSGTEFTLTISSLQSEDFAVYYCQQFNAWPLTFGGGTKMEIK
notes: VH and VL only
Take B16: the Kd is 6.2 nM with human CD3e/g and 11 nM with human CD3e/d.

B17: mAb 220 (antibody, V domains shown)
VH: QEQLVESGGGVVQPGGSLRLSCVASGFTFSGYGMHWVRQAPGKGLEWVAIIWYNGRKTYYAESVKGRFTISRDNSKNTLSLQMNSLRVEDTAVYYCTTGKGYNWFDPWGQGTLVTVSS
VL: EIVMTQSPATLSVSPGERATLSCRASQSVSSNLAWYQQKPGQAPRLLIYGASTRATGIPARFSGSGSGTEFTLTISSLQSEDFAVYYCQQFNAWPLTFGGGTKMEIK
notes: VH and VL only
Take B17: the figures for the Kd with human CD3e/g and with human CD3e/d were 11 nM and 16 nM, respectively.

B18: mAb 219 (antibody, V domains shown)
VH: QEQLVESGGGVVQPGGSLRLSCAASGFMFSGYGMHWVRQAPGKGLEWVAIIWYNGRKTYYTESVKGRFTISRDNSKNTLSLQMNSLRVEDTAVYYCTAGQGYNWFDPWGQGTLVTVSS
VL: EIVMTQSPATLSVSPGERATLSCRASQSVSSNLAWYQQKPGQAPRLLIYGASTRATGIPARFSGSGSGTEFTLTISSLQSEDFAVYYCQQFNAWPLTFGGGTKMEIK
notes: VH and VL only
With B18, the Kd in the experiment with human CD3e/g came to 6.3 nM; with human CD3e/d, 10 nM.

B19: mAb 213 (antibody, V domains shown)
VH: QEQLVESGGGVVQPGGSLRLSCAASGFTFSGYGMHWVRQAPGKGLEWVAIIWYNGRKTYYAESVKGRFTISRDNSKNTLSLQMNSLRVEDTAVYYCTTGKGYNWFDPWGQGTLVTVSS
VL: EIVMTQSPATLSVSPGERATLSCRASQSVSSNLAWYQQKPGQAPRLLIYGASTRATGIPARFSGSGSGTEFTLTISSLQSEDFAVYYCQQFNAWPLTFGGGTKMEIK
notes: VH and VL only
As for B19, the Kd was found to be 8.6 nM with human CD3e/g and 13 nM with human CD3e/d.
